This passage reports IC50 results from the Immune Epitope Database (IEDB).

The target in one assay is HLA-A*24:02. The experiment in a line: IEDB peptide-MHC binding, purified MHC/competitive/fluorescence; ≥ and ≤ were set here for values at or beyond the usual limits of such assays. The conditions noted are these: source organism: Plasmodium falciparum.
KLPLESSTI came in with an IC50 of 0.214 µM.
IYKRELYNI gave an IC50 of 0.0868 µM.
The same measure, in the same setting: for SYRYDISEEI the value was 0.363 µM; for IYIHLFILN, ≥ 142 µM.

Another assay has as its target HLA-A*01:01. The assay is described as above. The conditions noted are these: source organism: Plasmodium falciparum.
LTIIYIHLF: the IC50 is ≥ 100 µM.
On the same count and under the same terms, for STDPHTNSNN the value was ≥ 100 µM.
Turning to SECDIGLIY, the IC50 was ≥ 100 µM.
As for SIEIVERSNY, the half-inhibitory concentration (IC50) is 12.1 µM.
Turning to NSIYHKSSTY, the IC50 is ≥ 100 µM.
Still for that read-out and setting: for FLDYYKHLSY the value was 0.646 µM.
On the same count and under the same terms, for FTYDSEEYY the value was 0.136 µM; for TLNDEYIVSY, ≥ 213 µM; for NLFEQLSCY, ≥ 100 µM.
The sequence LNDEYIVSY registered an IC50 of 28.1 µM.
On to LSDTLQLHED, for which the IC50 was ≥ 100 µM.
The same measure, in the same setting: in the case of NNEDYKNVDY it was 7.99 µM.
Take GEEDETHIY: the IC50 is ≥ 261 µM.
Same read-out and setting: in the case of NKNDDSYRY it was 6.68 µM; in that of DTDSNHTPSN, 5.88 µM.
Still for that read-out and setting: in the case of DSCVPNTNEY it was ≥ 100 µM.
Still for that read-out and setting: in the case of STCYGNRFNY it was 54 µM; in that of NEDYKNVDY, 8.92 µM; in that of NSILIKPEKY, ≥ 109 µM.
Sequence TSSLIKQNKY returned an IC50 of 37.1 µM.
Sequence HREHPKEYEY returned an IC50 of 11.1 µM.
The same measure, in the same setting: for YIDTIKFIHK the value was 1.51 µM; for DVSTLNDEY, 52.2 µM.
As to HLDFVIIPHY, the IC50 is ≥ 118 µM.
Same read-out and setting: for LTPVATGNQY the value was 2.56 µM.
The sequence FNDVPIKMEY displayed an IC50 of 0.498 µM.
The same measure, in the same setting: for ENDYAYLNKY the value was 42.2 µM; for IPDNDKNSNY, 14.7 µM; for ASDQPKQYEQ, ≥ 126 µM.
The same measure, in the same setting: in the case of RTFKKMMDEY it was ≥ 100 µM; in that of STEEEKDDIK, 6.83 µM; in that of NTNGIRYHY, 4.38 µM.
Take SIYHKSSTY: the 50% inhibitory concentration (IC50) was ≥ 100 µM.

For another assay, the target named is HLA-B*44:02. The assay is described as above. The settings on record: source organism: Plasmodium falciparum.
With FEWHTLSKEY, the IC50 turned out to be 19.1 µM.
On the same count and under the same terms, in the case of SECDIGLIY it was ≥ 100 µM; in that of NENNENNFL, ≥ 100 µM.
The same measure, in the same setting: in the case of YENKSLTHYL it was ≥ 112 µM.
Still for that read-out and setting: in the case of EEKDDIKNG it was ≥ 100 µM; in that of EENYRCTQDI, ≥ 674 µM.
With KEMKHIFNRI, the IC50 stood at 39.2 µM.
On to VENNFPCSLY, for which the concentration for half-maximal inhibition (IC50) is 6.02 µM.
On to KDLSDMTNI, for which the half-maximal inhibitory concentration (IC50) was ≥ 100 µM.
For VQYFFLRPYI, the IC50 is ≥ 100 µM.
With NEYSLFITS, the half-inhibitory concentration (IC50) was ≥ 100 µM.
On the same count and under the same terms, for KEYNNSEITI the value was 11 µM.
On to KEIDNDKENI, for which the IC50 was ≥ 100 µM.
On the same count and under the same terms, in the case of NEKNDVKNN it was ≥ 100 µM.
In turn, EELQITQWI displayed an IC50 of 19.6 µM.
LEFVCSNRDF gave an IC50 of 7.46 µM.
Consider GEEKRASHTT, for which the 50% inhibitory concentration (IC50) amounted to 10 µM.
KEKFYKNNLY: the IC50 is ≥ 919 µM.
Regarding KEKHLNNIF, the IC50 was ≥ 100 µM.
As for NEIDKLTFSL, the IC50 is ≥ 332 µM.
The same measure, in the same setting: in the case of NDNNFAECY it was ≥ 100 µM.
Same read-out and setting: for DEYIHKLIL the value was ≥ 100 µM; for IEIVERSNY, 8.03 µM.
For NDVPIKMEYF, the IC50 was ≥ 100 µM.

A further assay deals with HLA-B*07:02. The description is as above. The settings on record: source organism: Plasmodium falciparum.
Take LPSAKNNCEY: the IC50 is ≥ 100 µM.
On the same count and under the same terms, in the case of RPYISKNDL it was 0.244 µM; in that of SPNDNINVT, 36.1 µM.
On the same count and under the same terms, in the case of IPFHKKFISF it was 21.9 µM; in that of TIIYIHLFIL, 13.7 µM; in that of MNRTFKKMM, ≥ 100 µM.
Still for that read-out and setting: for KSAFLPTGAF the value was ≥ 100 µM.
KPECVCKENL: the IC50 was ≥ 206 µM.
On the same count and under the same terms, for FNRIEYHTKI the value was ≥ 100 µM; for KPHECVCNKQ, ≥ 100 µM; for IPHYTFLDYY, ≥ 100 µM.
Regarding MIRIKKKLIL, the IC50 is ≥ 100 µM.
Turning to TPGPLDNTSE, the IC50 was ≥ 100 µM.
In the case of KVKDSWITL, the IC50 worked out at 0.458 µM.
FITSDHLRQM: the IC50 is ≥ 100 µM.
Still for that read-out and setting: for KRASHTTPV the value was ≥ 100 µM; for SPLNLQENEM, 22.4 µM.
On the same count and under the same terms, for KPEKYGNTTA the value was ≥ 836 µM.
The same measure, in the same setting: in the case of ITSDHLRQM it was ≥ 183 µM; in that of CPRKNLQNA, 0.484 µM.
On to HPYDINNKND, for which the IC50 was ≥ 100 µM.
For MDMKNYGTNL, the IC50 is ≥ 100 µM.
Turning to RASHTTPVL, the IC50 is 0.258 µM.
For LQKHGFHTM, the IC50 was ≥ 100 µM.
Regarding FVLENGVCI, the IC50 is ≥ 284 µM.
In the case of LPIKSTEEEK, the IC50 was ≥ 100 µM.
The same measure, in the same setting: in the case of FPCSLYKDEI it was ≥ 100 µM; in that of NPQQSVGENG, ≥ 100 µM.
On to LPLKIENREY, for which the IC50 was ≥ 100 µM.
The same measure, in the same setting: for NPEDRNSNTL the value was 2.7 µM; for MPKAVIGSSP, ≥ 293 µM; for IKKKLILTII, 44.1 µM.
The same measure, in the same setting: for RPNDCESVL the value was 0.377 µM.

Broadly, the IC50 is the point on the concentration scale where inhibition reaches its midpoint. Low values mean inhibition by little substance, high ones a need for much substance.
